Results on five molecules are retold here after patent US20230134571A1 (INTERNATIONAL AIDS VACCINE INITIATIVE, published 2023).

Residue numbers refer to the chain shown, from its start. A value given as a limit tells only on which side of the number the result lay.

Test in all cases: cell-based or functional assay
The target of experiment [1] is HIV Env, isolate Ce0682_E4 (HIV).
In experiment [2] the target is HIV Env, isolate X1254_C3 (HIV).
In experiment [3] the target is HIV Env, isolate ZM197M.PB7 (HIV).
Experiment [4] addresses HIV Env, isolate QH0692.42 (HIV).
In experiment [5] the target is HIV Env, isolate T278-50 (HIV).
The target in experiment [6] is HIV Env, isolate 6244_13_B5_4576 (HIV).
In experiment [7] the target is HIV Env, isolate CNE20 (HIV).
Experiment [8] addresses HIV Env, isolate 246FC1G (HIV).
Experiment [9] has as its target HIV Env, isolate 6535.3 (HIV).
For experiment [10], the target named is HIV Env, isolate CNE19 (HIV).
Experiment [11] concerns the target HIV Env, isolate ZM233M.PB6 (HIV).
Experiment [12] has as its target HIV Env, isolate HIV-16845-2.22 (HIV).
Experiment [13] addresses HIV Env, isolate CNE58 (HIV).
Experiment [14] concerns the target HIV Env, isolate X1193_C1 (HIV).
The target in experiment [15] is HIV Env, isolate ZM214M.PL15 (HIV).
In experiment [16] the target is HIV Env of isolate A07412M1.vrc12 (clade D) (HIV).
The target of experiment [17] is HIV Env of isolate Ce704809221_1B3 (clade C) (HIV).
In experiment [18] the target is HIV Env of isolate 3103.v3.c10 (clade ACD) (HIV).
Experiment [19] has as its target HIV Env of isolate P1981_C5_3 (clade G) (HIV).
Experiment [20] deals with HIV Env of isolate 6480.v4.c25 (clade CD) (HIV).
Experiment [21] addresses HIV Env of isolate 3016.v5.c45 (clade D) (HIV).
In experiment [22] the target is HIV Env of isolate CNE53 (clade BC) (HIV).
In experiment [23] the target is HIV Env of isolate WITO4160.33 (clade B) (HIV).
The target of experiment [24] is HIV Env of isolate 928-28 (clade AG) (HIV).
Experiment [25] concerns the target HIV Env of isolate T235-47 (clade AG) (HIV).
The target in experiment [26] is HIV Env of isolate TRJO4551.58 (clade B) (HIV).
Experiment [27] has as its target HIV Env of isolate ZM233M.PB6 (clade C) (HIV).
Experiment [28] addresses HIV Env of isolate CNE30 (clade BC) (HIV).
Experiment [29] has as its target HIV Env of isolate PVO.4 (clade B) (HIV).
Experiment [30] deals with HIV Env of isolate 1054_07_TC4_1499 (clade B) (HIV).
For experiment [31], the target named is HIV Env of isolate MS208.A1 (clade A) (HIV).
Experiment [32] addresses HIV Env of isolate SC422661.8 (clade B) (HIV).
In experiment [33] the target is HIV Env of isolate 6240_08_TA5_4622 (clade B) (HIV).
The target in experiment [34] is HIV Env of isolate Ce703010054_2A2 (clade C) (HIV).
Experiment [35] addresses HIV Env of isolate 6244_13_B5_4576 (clade B) (HIV).
In experiment [36] the target is HIV Env of isolate RHPA4259.7 (clade B) (HIV).
Experiment [37] concerns the target HIV Env of isolate 7030102001E5(Rev-) (clade C) (HIV).
The target of experiment [38] is HIV Env of isolate CNE19 (clade BC) (HIV).
Experiment [39] concerns the target HIV Env of isolate 0330.v4.c3 (clade A) (HIV).
Experiment [40] addresses HIV Env of isolate 6952.v1.c20 (clade CD) (HIV).
The target of experiment [41] is HIV Env of isolate HIV-0013095-2.11 (clade C) (HIV).
Experiment [42] addresses HIV Env of isolate T263-8 (clade AG) (HIV).

B1: ePGDM9 (antibody, V domains shown)
VH: QAQLVQSGPEVRKPGTSVKVSCKNPGNTLTTYDLHWVRQVPGQGLQWMGWISHEGDKKVIVERFKAKVTIDWDRSTNTAYLQLSGLTSEDTAVYYCAKGSKHRLRDYALYDEDGALNWAVDVDYLANLEFWGQGTAVTVSS
VL: DIVLTQSPLSLSVTPGESASISCKSSQSLIHGDRNNYLAWYVQKPGRSPQLLIDLASERASGVPDRFSGSGSRKDFTLKISRVETEDVGTYYCMQGRESPWTFGQGTKVDIK
B1: the “IC80 (µg/ml) with constrains” value in experiment [1] is 0.022 µg/mL; in experiment [2] it was 0.71 µg/mL; in [3] it was 0.092 µg/mL; in [4] it was more than 100 µg/mL; in [5], 2.02 µg/mL; in experiment [6], 50.2 µg/mL. In addition, the “IC80 (µg/ml) with constrains” value in experiment [7] is 0.008 µg/mL; in experiment [8], more than 100 µg/mL; in [9] it was more than 100 µg/mL; in [10] it was 0.012 µg/mL; in experiment [11], 0.007 µg/mL; in experiment [12], more than 100 µg/mL. Moreover, the “IC80 (µg/ml) with constrains” value in experiment [13] was 0.008 µg/mL; in experiment [14], 0.158 µg/mL; in experiment [15], more than 100 µg/mL.

B2: ePGDM5 (antibody, V domains shown)
VH: B1 VH
VL: B1 VL with I2F, S26D, Q27H, I30Q, S81D, T85A
On to B2, for which the “IC80 (µg/ml) with constrains” value was 0.021 µg/mL in [1]; 0.869 µg/mL in experiment [2]; 0.141 µg/mL in experiment [3]; more than 100 µg/mL in [4]; 4.23 µg/mL in [5]; 75.6 µg/mL in experiment [6]. Also, the “IC80 (µg/ml) with constrains” value in experiment [7] was 0.015 µg/mL; in experiment [8] it was more than 100 µg/mL; in experiment [9], more than 100 µg/mL; in experiment [10], 0.012 µg/mL; in experiment [11] it was 0.007 µg/mL; in experiment [12] it was more than 100 µg/mL. The “IC80 (µg/ml) with constrains” value in [13] is 0.015 µg/mL; in experiment [14], 0.156 µg/mL; in [15] it was more than 100 µg/mL.

B3: PGDM1400 (antibody, V domains shown)
VH: B1 VH with A2V, Q3H, V5T, N24A, T30K, Q39S, E89G, E112D, A126S
VL: B1 VL with I2F, L9H, Q27H, D54Y, E58S, R73D
For B3, the “IC80 (µg/ml) with constrains” value in experiment [1] is 0.037 µg/mL; in experiment [2], more than 100 µg/mL; in experiment [3] it was 0.282 µg/mL; in experiment [4], more than 100 µg/mL; in experiment [5], 21.7 µg/mL; in [6] it was more than 100 µg/mL. The “IC80 (µg/ml) with constrains” value in [7] was 0.021 µg/mL; in experiment [8], more than 100 µg/mL; in experiment [9] it was more than 100 µg/mL; in experiment [10] it was 0.019 µg/mL; in [11] it was 0.007 µg/mL; in experiment [12], more than 100 µg/mL. Also, the “IC80 (µg/ml) with constrains” value is 0.01 µg/mL in experiment [13], 0.374 µg/mL in experiment [14] and more than 100 µg/mL in experiment [15].

B4: PGDM1400 (antibody, V domains shown)
VH: B1 VH with A2V, Q3H, V5T, N24A, T30K, Q39S, E89G, E112D, A126S
VL: B1 VL with I2F, L9H, Q27H, D54Y, E58S, R73D
B4: the “IC50 (µg/ml) with constrains” value in [16] was 0.029 µg/mL; in experiment [17], 0.32 µg/mL; in experiment [18], 0.223 µg/mL; in [19] it was 18.9 µg/mL; in experiment [20], more than 100 µg/mL; in [21] it was more than 100 µg/mL. Moreover, the “IC50 (µg/ml) with constrains” value in experiment [22] is 0.026 µg/mL; in experiment [23], 0.003 µg/mL; in experiment [24] it was 0.069 µg/mL; in [25] it was 0.011 µg/mL; in experiment [26] it was more than 100 µg/mL; in experiment [27], 0.002 µg/mL. For the same molecule, the “IC50 (µg/ml) with constrains” value was more than 100 µg/mL in experiment [28]; 3.41 µg/mL in [29]; more than 100 µg/mL in experiment [30]; 0.01 µg/mL in experiment [31]; 15.7 µg/mL in experiment [32]; 52.4 µg/mL in experiment [33]. Also, the “IC50 (µg/ml) with constrains” value was 0.014 µg/mL in experiment [34]; more than 100 µg/mL in [35]; 0.491 µg/mL in experiment [36]; more than 100 µg/mL in [37]; 0.005 µg/mL in experiment [38]; 0.004 µg/mL in experiment [39]. Further, the entries for the “IC50 (µg/ml) with constrains” value in [40], in experiment [41] and in experiment [42] were 1.76 µg/mL, more than 100 µg/mL and 0.02 µg/mL, respectively. The “IC80 (µg/ml) with constrains” value in experiment [18] turned out to be 0.892 µg/mL; in experiment [24], 0.277 µg/mL; in experiment [25], 0.044 µg/mL; in experiment [31], 0.041 µg/mL; in experiment [39] it was 0.016 µg/mL.

B5: ePGDM13 (antibody, V domains shown)
VH: B1 VH
VL: B1 VL with Q27H, I30Q, I53L, R73E
In the case of B5, the “IC80 (µg/ml) with constrains” value was 0.043 µg/mL in experiment [1]; 2.07 µg/mL in [2]; 0.24 µg/mL in [3]; more than 100 µg/mL in [4]; 6.4 µg/mL in [5]; more than 100 µg/mL in experiment [6]. In addition, the “IC80 (µg/ml) with constrains” value in [7] was 0.015 µg/mL; in experiment [8], more than 100 µg/mL; in [9] it was more than 100 µg/mL; in experiment [10], 0.013 µg/mL; in [11], 0.006 µg/mL; in [12] it was more than 100 µg/mL. Besides, the entries for the “IC80 (µg/ml) with constrains” value in experiment [13], in experiment [14] and in [15] were 0.014 µg/mL, 0.381 µg/mL and more than 100 µg/mL, respectively.
